Measurements published in patent publication US6177078A (Medvet Science Pty Limited, priority 1995, dated 2001).

Experiments:
IL-3Rα chain = biological target: T1, IL-3Rα chain (Homo sapiens, UniProt P26951); assay: Competition for 125I-7G3 binding to F6 cells by IL-3 or GM-CSF; details: F6 cells expressing IL-3Rα chain alone, preincubated, 1 nM 125I-7G3
T1 construct: expressed in transfected cells
T1 sequence (P26951 19-378): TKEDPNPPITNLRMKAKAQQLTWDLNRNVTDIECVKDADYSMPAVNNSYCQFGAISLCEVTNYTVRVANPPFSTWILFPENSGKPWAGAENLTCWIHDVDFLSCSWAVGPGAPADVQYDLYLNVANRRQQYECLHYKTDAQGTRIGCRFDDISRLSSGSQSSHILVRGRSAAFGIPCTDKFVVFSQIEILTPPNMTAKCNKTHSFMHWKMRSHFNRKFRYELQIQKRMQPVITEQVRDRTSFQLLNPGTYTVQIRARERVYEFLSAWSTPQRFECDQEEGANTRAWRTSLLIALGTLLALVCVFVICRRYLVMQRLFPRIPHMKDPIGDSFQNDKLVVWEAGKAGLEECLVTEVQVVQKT
Method: (§1) The binding curve was analysed by Scatchard transformation.^31 In competition binding experiments F6 cells or COS cells co-expressing IL-3R α and β chains were preincubated for 2 hours at 4° C. with a range of concentrations of IL-3 or GM-CSF before adding 1 nM of ^125 I-7G3 for a further 2 hours.

IL-3R α and β chains = biological target: T2, IL-3R α and β chains (Homo sapiens, UniProt P26951); assay: Competition for 125I-7G3 binding to COS cells expressing IL-3R α and β chains by IL-3 or GM-CSF; details: COS cells transfected with IL-3Rα and β chain, preincubated, 1 nM 125I-7G3
T2 construct: expressed in transfected cells; host or cells: COS (monkey fibroblast) cells, transient co-transfection
T2 sequence (P26951 19-378): T1 sequence (P26951 19-378)
Method: as §1

inhibition of 125I-7G3 binding to the IL-3R (IL-3Rα chain): not | inhibition of 125I-7G3 binding to the IL-3R (IL-3R α and β chains): not
Substance: GM-CSF: GM-CSF, a gift from Genetics Institute
